In publication doi:10.1101/2024.06.05.597462 (bioRxiv, 2024):
Where two headings read alike, the source gives them in different places.

B1: Arc-FL-C-EGFP (natural protein)
chain: MELDHMTTGGLHAYPAPRGGPAAKPNVILQIGKCRAEMLEHVRRTHRHLLTEVSKQVERELKGLHRSVGKLENNLDGYVPTGDSQRWKKSIKACLCRCQETIANLERWVKREMHVWREVFYRLERWADRLESMGGKYPVGSEPARHTVSVGVGGPEPYCQEADGYDYTVSPYAITPPPAAGELPEQESVGAQQYQSWVPGEDGQPSPGVDTQIFEDPREFLSHLEEYLRQVGGSEEYWLSQIQNHMNGPAKKWWEFKQGSVKNWVEFKKEFLQYSEGTLSREAIQRELDLPQKQGEPLDQFLWRKRDLYQTLYVDAEEEEIIQYVVGTLQPKFKRFLRHPLPKTLEQLIQRGMEVQDGLEQAAEPSVTPLPTEDETEALTPALTSESVASDRTQPE

Legend:
Test in all cases: fluorescence correlation spectroscopy
Arc NTD-linker-SNAP = molecular target: Arc NTD-linker-SNAP
[1] = molecular target: the molecule itself
[2] = molecular target: the molecule itself; remark: listed apart in the source

| Molecule | stoichiometry N (Arc NTD-linker-SNAP) | stoichiometry N [1] | stoichiometry N [2] |
| --- | --- | --- | --- |
| Arc NTD-linker-SNAP (domain or fragment) | 4 | – | – |
| B1 | – | 627 | 4.3 |
